Reference: patent US12456543B2, “Enzymes” (UNIVERSITY COURT OF THE UNIVERSITY OF ST ANDREWS, priority 2018, dated 2025)

B1: Dsg205: halogenase from Trichoderma virens Gy29-8 GenBank: EHK23009.1 (protein)
chain: MAIPEKCTVLVVGGGPAGSYAAAALAREGIDTVILEADKFPRYHIGESMLASMRHFLRFIDVDSVFDSYGFTKKVGAAFKLNPKKREGYTDFLAAGGPENYAWNVVRSEADQLLFQHAAKSGAKAFDGVQVKSINFIDVPYKGPGQLPHDYPGRPVSATYVQKDDNTPREIKFDYIIDASGRVGILSTKHLKNRKYNQGLKNVATWGYWKGAGAYGKGTPRENSPFFEALQDESGWAWLIPLHNGTASVGIVMNQKMSVERKTQAGSPDSKTFYLDCLKELAPDLTKLMENGELITDIKSAADYSYSASGYAIPYARIAGDAGCFIDPYFSSGVHLAFVGGLSAAATIAAAIRGDCSEEAAADWHSKKIADAYIRFLLVVLSAYRQIRSQEEPVLSDINEDNFDRAFAFFRPVIQGIADVDTKLSQDELRKTLEFCSNAFEPVKPEDRTAMLEKLGKDPATAYQVDLSDQQRTVVDHIRARQMMRTEDTININSFGTDSINGFVPNLKRGELGLVPAKV
modifications: left off: small tags and cut ends
B2: PrnA: tryptophan 7-halogenase, first step in pyrrolnitrin biosynthesis (protein, UniProt P95480 1-538, looked up)
Tryptophan 7-halogenase PrnA: MNKPIKNIVIVGGGTAGWMAASYLVRALQQQANITLIESAAIPRIGVGEATIPSLQKVFFDFLGIPEREWMPQVNGAFKAAIKFVNWRKSPDPSRDDHFYHLFGNVPNCDGVPLTHYWLRKREQGFQQPMEYACYPQPGALDGKLAPCLSDGTRQMSHAWHFDAHLVADFLKRWAVERGVNRVVDEVVDVRLNNRGYISNLLTKEGRTLEADLFIDCSGMRGLLINQALKEPFIDMSDYLLCDSAVASAVPNDDARDGVEPYTSSIAMNSGWTWKIPMLGRFGSGYVFSSHFTSRDQATADFLKLWGLSDNQPLNQIKFRVGRNKRAWVNNCVSIGLSSCFLEPLESTGIYFIYAALYQLVKHFPDTSFDPRLSDAFNAEIVHMFDDCRDFVQAHYFTTSRDDTPFWLANRHDLRLSDAIKEKVQRYKAGLPLTTTSFDDSTYYETFDYEFKNFWLNGNYYCIFAGLGMLPDRSLPLLQHRPESIEKAEAMFASIRREAERLRTSLPTNYDYLRSLRDGDAGLSRGQRGPKLAAQESL

Legend:
[1] = Halogenase activity of Dsg205 and Dsg701 against 600 member compound library, LC-MSMS assay; type: biochemical; conditions: 600 member compound library
[2] = Halogenation of the initial 300 compound library by purified halogenase, LCMS; type: biochemical; conditions: out of 300 compounds
[3] = engineered to expand substrate scope; cited from earlier work

Row | Molecule | members of the library halogenated (substrates accepted) [1] | compounds of the initial 300 compound library halogenated [2] | yields after directed evolution and rational design [3]
1 | B1 | 33 | 3 | 
2 | B2 |  |  | 15-65%
